{"source": "patent US20020009752A1", "about": "(DUKE UNIVERSITY, published 2002)", "key": {"[1]": {"target": "T1, bovine serum albumin (bovine, UniProt P02769 25-607)", "T1 construct": "also called BSA", "T1 sequence (P02769 25-607 limits assumed)": "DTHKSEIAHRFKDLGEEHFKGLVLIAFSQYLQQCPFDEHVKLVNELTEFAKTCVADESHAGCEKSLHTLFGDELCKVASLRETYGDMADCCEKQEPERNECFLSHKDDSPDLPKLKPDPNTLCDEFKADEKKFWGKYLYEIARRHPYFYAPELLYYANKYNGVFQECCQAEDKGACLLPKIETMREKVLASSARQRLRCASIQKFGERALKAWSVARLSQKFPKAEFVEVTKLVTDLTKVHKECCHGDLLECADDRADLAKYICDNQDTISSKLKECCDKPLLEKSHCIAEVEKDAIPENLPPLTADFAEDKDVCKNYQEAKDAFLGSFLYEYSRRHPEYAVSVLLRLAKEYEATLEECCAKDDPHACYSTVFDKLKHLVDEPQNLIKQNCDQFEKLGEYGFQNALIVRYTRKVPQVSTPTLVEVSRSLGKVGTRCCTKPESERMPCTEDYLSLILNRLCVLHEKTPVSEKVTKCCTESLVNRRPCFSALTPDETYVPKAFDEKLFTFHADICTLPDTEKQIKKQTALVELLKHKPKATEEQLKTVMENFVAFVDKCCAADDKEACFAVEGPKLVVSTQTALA", "experiment": "phage ELISA"}, "[2]": {"target": "T2, polyglutamine-glutathione-S-transferase fusion protein with 62 glutamines (UniProt Q156A1 2-63)", "T2 construct": "Vector construction is cited to Onodera et al. 1996; also called Q62-GST; Q62; not shown: glutathione-S-transferase (GST)", "T2 sequence (Q156A1 2-63)": "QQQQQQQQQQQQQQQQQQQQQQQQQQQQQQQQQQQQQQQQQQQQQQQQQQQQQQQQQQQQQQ", "experiment": "phage ELISA on immobilized Q62-GST and Q19-GST, anti-M13 antibody detection; reference Q19-GST"}, "[3]": {"target": "thioredoxin-polyglutamine fusion protein with 62 glutamines (Homo sapiens (Human), UniProt Q156A1 2-63)", "sequence (Q156A1 2-63)": "as above", "experiment": "cell-based or functional assay"}, "[4]": {"target": "thioredoxin-polyglutamine fusion protein with 81 glutamines (Dictyostelium discoideum (Social amoeba), UniProt Q54DK4 734-1290)", "sequence (Q54DK4 other isoform, or with tags, fused parts or gaps)": "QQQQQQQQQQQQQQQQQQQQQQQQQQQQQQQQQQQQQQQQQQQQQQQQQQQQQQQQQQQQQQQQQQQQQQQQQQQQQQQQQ", "experiment": "cell-based or functional assay"}}, "note": "No end group written: not given here.", "data": [{"binder": "HEWHWWHQEAA-pIII (Assayed as purified M13 phage displaying the 11-mer at the amino terminus of pIII; not shown: pIII (Piii) capsid protein of phage M13; the 11-mer is added to its amino terminus; assayed as whole phage)", "note": "[QBP3 phage clone (Glutamine Binding Peptide 3 displayed on M13 phage)]", "values": [{"measurement": "binding result", "setting": "[1]", "result": "no binding"}, {"measurement": "RATIO Q62/Q19 BINDING ELISA", "setting": "[2]", "result": "1.3 ratio (phage bound to Q62-GST divided by phage bound to Q19-GST)"}]}, {"binder": "WHNYFHWWQDT-pIII (Assayed as purified M13 phage displaying the 11-mer at the amino terminus of pIII; not shown: pIII (Piii) capsid protein of phage M13; the 11-mer is added to its amino terminus; assayed as whole phage)", "note": "[QBP6 phage clone (Glutamine Binding Peptide 6 displayed on M13 phage)]", "values": [{"measurement": "binding result", "setting": "[1]", "result": "no binding"}, {"measurement": "RATIO Q62/Q19 BINDING ELISA", "setting": "[2]", "result": "1.23 ratio (phage bound to Q62-GST divided by phage bound to Q19-GST)"}]}, {"binder": "Ac-SNWKWWPGIFD", "note": "[QBP1 synthetic 11-mer peptide (glutamine binding peptide 1)]", "values": [{"measurement": "inhibition of thio-Q62 aggregation in vitro (turbidity at 405 nm)", "setting": "[3]", "result": "3 molar ratio thio-Q62:QBP1 (3:1) for complete inhibition"}, {"measurement": "inhibition of thio-Q81 aggregation in vitro (turbidity at 405 nm)", "setting": "[4]", "result": "10 fold molar excess of QBP1 over thio-Q81"}]}, {"binder": "HWWRSWYSDSV-pIII (Assayed as purified M13 phage displaying the 11-mer at the amino terminus of pIII; not shown: pIII (Piii) capsid protein of phage M13; the 11-mer is added to its amino terminus; assayed as whole phage)", "note": "[QBP2 phage clone (Glutamine Binding Peptide 2 displayed on M13 phage)]", "values": [{"measurement": "binding result", "setting": "[1]", "result": "no binding"}, {"measurement": "RATIO Q62/Q19 BINDING ELISA", "setting": "[2]", "result": "1.31 ratio (phage bound to Q62-GST divided by phage bound to Q19-GST)"}]}, {"binder": "WWRWNWATPVD-pIII (Assayed as purified M13 phage displaying the 11-mer at the amino terminus of pIII; not shown: pIII (Piii) capsid protein of phage M13; the 11-mer is added to its amino terminus; assayed as whole phage)", "note": "[QBP5 phage clone (Glutamine Binding Peptide 5 displayed on M13 phage)]", "values": [{"measurement": "binding result", "setting": "[1]", "result": "no binding"}, {"measurement": "RATIO Q62/Q19 BINDING ELISA", "setting": "[2]", "result": "1.25 ratio (phage bound to Q62-GST divided by phage bound to Q19-GST)"}]}, {"binder": "WGLEHFAGNKR-pIII (Assayed as purified M13 phage displaying the 11-mer at the amino terminus of pIII; not shown: pIII (Piii) capsid protein of phage M13; the 11-mer is added to its amino terminus; assayed as whole phage)", "note": "[QBP4 phage clone (Glutamine Binding Peptide 4 displayed on M13 phage)]", "values": [{"measurement": "binding result", "setting": "[1]", "result": "no binding"}, {"measurement": "RATIO Q62/Q19 BINDING ELISA", "setting": "[2]", "result": "1.27 ratio (phage bound to Q62-GST divided by phage bound to Q19-GST)"}]}, {"binder": "SNWKWWPGIFD-pIII (Assayed as purified M13 phage displaying the 11-mer at the amino terminus of pIII; not shown: pIII (Piii) capsid protein of phage M13; the 11-mer is added to its amino terminus; assayed as whole phage)", "note": "[QBP1 phage clone (Glutamine Binding Peptide 1 displayed on M13 phage)]", "values": [{"measurement": "binding result", "setting": "[1]", "result": "no binding"}, {"measurement": "RATIO Q62/Q19 BINDING ELISA", "setting": "[2]", "result": "1.66 ratio (phage bound to Q62-GST divided by phage bound to Q19-GST)"}]}]}
